Data as given in patent publication US20230212319A1, “NOVEL ANTIGEN BINDING DOMAINS AND SYNTHETIC ANTIGEN RECEPTORS INCORPORATING THE SAME” (University of Southern California, priority 2020, published 2023).

B1: 22142 (protein)
chain: MALPVTALLLPLALLLHAARPQVQLVESGGGLVQPGGSLRLSCAASGFTFTNHAMSWVRQAPGKGLELVSSISGNGRTTYYADSVKGRFTISRDISKNTLDLQMNSLRAEDTAVYYCAKDGGETLVDSRGQGTLVTVSSLEGGGGSGGGGSIEGGGGSGGGGSKVQLLESGGGLVQPGGSLRLSCAASGFIFSSYAMSWVRQAPGKGQEWVSGVSGTGVNTYYADSVKGRFTISRDNSKNTLYLQMNSLRAEDTAVYYCASGKGWDSGSWYEDYRGQGTLVTVSSGTGGGGSGGGGSGGGGSEFDIQMTQSPSSLSASVGDRVTITCKASDHINNWLAWYQQKPGQAPKLLIYGATTLETGVPSRFSGSGSGTDYTLTISSLQPEDFATYYCQQSWNTPWTFGQGTKLEIKRLEIQNPDPAVYQLRDSKSSDKSVCLFTDFDSQTNVSQSKDSDVYITDKCVLDMRSMDFKSNSAVAWSNKSDFACANAFNNSIIPEDTFFPSSDVPCDVKLVEKSFETDTNLNFQNLSVIGFRILLLKVAGFNLLMTLRLWSSRAKRSGSGVKQTLNFDLLKLAGDVESNPGPTSATMDWIWRILFLVGAATGAHSGPQVQLQESGGGLAQAGGSLRLSCAASGRTFSMGWFRQAPGKEREFVAAITYSGGSPYYASSVRGRFTISRDNAKNTVYLQMNSLKPEDTAVYYCAANPTYGSDWNAENWGQGTQVTVSSGSGGGGSGGGGSGGGGSFEQVQLQQPGAELVKPGASVKMSCKASGYAFSSYWINWMKQKPGQGLEWIGQIYPGDGDTNYNGKFKGRATLTADTSSSTAYMQLSSLTSEDSAVYFCARSITTVVGCAMDYWGQGTSVTVSSTREDLKNVFPPEVAVFEPSKAEIAHTQKATLVCLATGFYPDHVELSWWVNGKEVHSGVCTDPQPLKEQPALNDSRYCLSSRLRVSATFWQNPRNHFRCQVQFYGLSENDEWTQDRAKPVTQIVSAEAWGRADCGITSASYHQGVLSATILYEILLGKATLYAVLVSALVLMAMVKRKDSRGRAKRSGSGATNFSLLKQAGDVEENPGPSRGHMTEYKPTVRLATRDDVPRAVRTLAAAFADYPATRHTVDPDRHIERVTELQELFLTRVGLDIGKVWVADDGAAVAVWTTPESVEAGAVFAEIGPRMAELSGSRLAAQQQMEGLLAPHRPKEPAWFLATVGVSPDHQGKGLGSAVVLPGVEAAERAGVPAFLETSAPRNLPFYERLGFTVTADVEVPEGPRTWCMTRKPGA
B2: 22109 (protein)
chain: MALPVTALLLPLALLLHAARPMLPAPKNLVVSRITEDSARLSWTAPDAAFDSFPIRYIETLIWGEAIWLDVPGSERSYDLTGLKPGTEYAVVITGVKGGRFSSPLVASFTTGTGGGGSGGGGSGGGGSEFDIQMTQSPSSLSASVGDRVTITCKASDHINNWLAWYQQKPGQAPKLLIYGATTLETGVPSRFSGSGSGTDYTLTISSLQPEDFATYYCQQSWNTPWTFGQGTKLEIKRLEDLKNVFPPEVAVFEPSEAEISHTQKATLVCLATGFYPDHVELSWWVNGKEVHSGVCTDPQPLKEQPALNDSRYCLSSRLRVSATFWQNPRNHFRCQVQFYGLSENDEWTQDRAKPVTQIVSAEAWGRADCGFTSESYQQGVLSATILYEILLGKATLYAVLVSALVLMAMVKRKDSRGRAKRSGSGATNFSLLKQAGDVEENPGPTSMDWIWRILFLVGAATGAHSFEQVQLQQPGAELVKPGASVKMSCKASGYAFSSYWINWMKQKPGQGLEWIGQIYPGDGDTNYNGKFKGRATLTADTSSSTAYMQLSSLTSEDSAVYFCARSITTVVGCAMDYWGQGTSVTVSSTRIQNPDPAVYQLRDSKSSDKSVCLFTDFDSQTNVSQSKDSDVYITDKCVLDMRSMDFKSNSAVAWSNKSDFACANAFNNSIIPEDTFFPSPESSCDVKLVEKSFETDTNLNFQNLSVIGFRILLLKVAGFNLLMTLRLWSSRAKRSGSGVKQTLNFDLLKLAGDVESNPGPSRGHMTEYKPTVRLATRDDVPRAVRTLAAAFADYPATRHTVDPDRHIERVTELQELFLTRVGLDIGKVWVADDGAAVAVWTTPESVEAGAVFAEIGPRMAELSGSRLAAQQQMEGLLAPHRPKEPAWFLATVGVSPDHQGKGLGSAVVLPGVEAAERAGVPAFLETSAPRNLPFYERLGFTVTADVEVPEGPRTWCMTRKPGA
B3: 22130 (protein)
chain: MALPVTALLLPLALLLHAARPACEVQLLESGGGLIQPGGSLRLSCAASGFTFSSHAMTWVRQAPGKGLEWVSAISGSGDYTHYADSVKGRFTISRDNSKNTVYLQMNSLRAEDSAVYYCAKDEDGGSLLGHRGQGTLVTVSSGTGGGGSGGGGSGGGGSEFDIQMTQSPSSLSASVGDRVTITCKASDHINNWLAWYQQKPGQAPKLLIYGATTLETGVPSRFSGSGSGTDYTLTISSLQPEDFATYYCQQSWNTPWTFGQGTKLEIKRLEDLKNVFPPEVAVFEPSKAEIAHTQKATLVCLATGFYPDHVELSWWVNGKEVHSGVCTDPQPLKEQPALNDSRYCLSSRLRVSATFWQNPRNHFRCQVQFYGLSENDEWTQDRAKPVTQIVSAEAWGRADCGITSASYHQGVLSATILYEILLGKATLYAVLVSALVLMAMVKRKDSRGRAKRSGSGATNFSLLKQAGDVEENPGPTSATMDWIWRILFLVGAATGAHSGPQVQLQESGGGLAQAGGSLRLSCAASGRTFSMGWFRQAPGKEREFVAAITYSGGSPYYASSVRGRFTISRDNAKNTVYLQMNSLKPEDTAVYYCAANPTYGSDWNAENWGQGTQVTVSSGSGGGGSGGGGSGGGGSFEQVQLQQPGAELVKPGASVKMSCKASGYAFSSYWINWMKQKPGQGLEWIGQIYPGDGDTNYNGKFKGRATLTADTSSSTAYMQLSSLTSEDSAVYFCARSITTVVGCAMDYWGQGTSVTVSSTRIQNPDPAVYQLRDSKSSDKSVCLFTDFDSQTNVSQSKDSDVYITDKCVLDMRSMDFKSNSAVAWSNKSDFACANAFNNSIIPEDTFFPSSDVPCDVKLVEKSFETDTNLNFQNLSVIGFRILLLKVAGFNLLMTLRLWSSRAKRSGSGVKQTLNFDLLKLAGDVESNPGPSRGHMTEYKPTVRLATRDDVPRAVRTLAAAFADYPATRHTVDPDRHIERVTELQELFLTRVGLDIGKVWVADDGAAVAVWTTPESVEAGAVFAEIGPRMAELSGSRLAAQQQMEGLLAPHRPKEPAWFLATVGVSPDHQGKGLGSAVVLPGVEAAERAGVPAFLETSAPRNLPFYERLGFTVTADVEVPEGPRTWCMTRKPGA
B4: 22116 (protein)
chain: MALPVTALLLPLALLLHAARPQVQLVESGGGLVQPGGSLRLSCAASGFTFTNHAMSWVRQAPGKGLELVSSISGNGRTTYYADSVKGRFTISRDISKNTLDLQMNSLRAEDTAVYYCAKDGGETLVDSRGQGTLVTVSSLEIQNPDPAVYQLRDSKSSDKSVCLFTDFDSQTNVSQSKDSDVYITDKCVLDMRSMDFKSNSAVAWSNKSDFACANAFNNSIIPEDTFFPSSDVPCDVKLVEKSFETDTNLNFQNLSVIGFRILLLKVAGFNLLMTLRLWSSRAKRSGSGVKQTLNFDLLKLAGDVESNPGPTSTMALPVTALLLPLALLLHAARPQVQLVESGGGLVQPGGSLRLSCAASGFTFTNHAMSWVRQAPGKGLELVSSISGNGRTTYYADSVKGRFTISRDISKNTLDLQMNSLRAEDTAVYYCAKDGGETLVDSRGQGTLVTVSSLESGGGGSFEQVQLQQPGAELVKPGASVKMSCKASGYAFSSYWINWMKQKPGQGLEWIGQIYPGDGDTNYNGKFKGRATLTADTSSSTAYMQLSSLTSEDSAVYFCARSITTVVGCAMDYWGQGTSVTVSSTREDLKNVFPPEVAVFEPSKAEIAHTQKATLVCLATGFYPDHVELSWWVNGKEVHSGVCTDPQPLKEQPALNDSRYCLSSRLRVSATFWQNPRNHFRCQVQFYGLSENDEWTQDRAKPVTQIVSAEAWGRADCGITSASYHQGVLSATILYEILLGKATLYAVLVSALVLMAMVKRKDSRGRAKRSGSGATNFSLLKQAGDVEENPGPSRGHMTEYKPTVRLATRDDVPRAVRTLAAAFADYPATRHTVDPDRHIERVTELQELFLTRVGLDIGKVWVADDGAAVAVWTTPESVEAGAVFAEIGPRMAELSGSRLAAQQQMEGLLAPHRPKEPAWFLATVGVSPDHQGKGLGSAVVLPGVEAAERAGVPAFLETSAPRNLPFYERLGFTVTADVEVPEGPRTWCMTRKPGA

How the values were obtained:
Type in all cases: cell-based
RS;411 = test: JNG assay, co-culture with RS;411 cells; details: co-culture with RS411
In short: (§1)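 Jurkat NFAT-GFP (JNG) cells stably transduced with SARs by lentivirus, with drug selection where the construct carried a resistance gene, then co-cultured with target cells at E:T ~1:2 for ~4–18 h. % GFP-positive cells measured by FACS against parental JNG; +/- to 5+ correspond to ~5–50% GFP-positive.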

Nalm6 cells = test: JNG assay, co-culture with Nalm6 cells; details: co-culture with Nalm6
In short: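 Drug-selected populations of SAR-expressing Jurkat-NFAT-GFP cells meet target cells (about 1:2 E:T) for roughly 4–18 h. Flow cytometry gives % GFP+ cells, graded +/- to 5+ (≈5% to ≈50%) relative to the parental control.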

RAJI-CD19-KO cells = test: JNG assay, co-culture with RAJI-CD19-KO cells; details: co-culture with Raji-CD19-KO
In short: as §1

RAJI cells = test: JNG assay, co-culture with RAJI cells; details: JNG cells expressing construct, co-culture with Raji
In short: as §1

L363 cells = test: JNG assay, co-culture with L363 cells; details: co-culture with L363
In short: as §1

Row | Molecule | NFAT-GFP ASSAY: RS411 (RS;411) | NFAT-GFP ASSAY: Nalm6 (Nalm6 cells) | NFAT-GFP ASSAY: Raji-CD19-KO (RAJI-CD19-KO cells) | NFAT-GFP ASSAY: Raji (RAJI cells) | NFAT-GFP ASSAY: L363 (L363 cells)
1 | B1 | +/- (refer to approximately 5%, 10%, 20%, 30%, 40% and 50% GFP positive cells) | + (refer to approximately 5%, 10%, 20%, 30%, 40% and 50% GFP positive cells) | + (refer to approximately 5%, 10%, 20%, 30%, 40% and 50% GFP positive cells) | + (refer to approximately 5%, 10%, 20%, 30%, 40% and 50% GFP positive cells) | –
2 | B2 | 4+ (refer to approximately 5%, 10%, 20%, 30%, 40% and 50% GFP positive cells) | 2+ (refer to approximately 5%, 10%, 20%, 30%, 40% and 50% GFP positive cells) | +/- (refer to approximately 5%, 10%, 20%, 30%, 40% and 50% GFP positive cells) | 2+ (refer to approximately 5%, 10%, 20%, 30%, 40% and 50% GFP positive cells) | +/- (refer to approximately 5%, 10%, 20%, 30%, 40% and 50% GFP positive cells)
3 | B3 | 4+ (refer to approximately 5%, 10%, 20%, 30%, 40% and 50% GFP positive cells) | – | 5+ (refer to approximately 5%, 10%, 20%, 30%, 40% and 50% GFP positive cells) | 4+ (refer to approximately 5%, 10%, 20%, 30%, 40% and 50% GFP positive cells) | 5+ (refer to approximately 5%, 10%, 20%, 30%, 40% and 50% GFP positive cells)
4 | B4 | 2+ (refer to approximately 5%, 10%, 20%, 30%, 40% and 50% GFP positive cells) | 3+ (refer to approximately 5%, 10%, 20%, 30%, 40% and 50% GFP positive cells) | 2+ (refer to approximately 5%, 10%, 20%, 30%, 40% and 50% GFP positive cells) | 3+ (refer to approximately 5%, 10%, 20%, 30%, 40% and 50% GFP positive cells) | –
